To fix the notation:
B1: YVDPVITSI (met proto-oncogen 654-662) (peptide)
peptide: YVDPVITSI
notes: Found in tumors of both patients RCC01 and RCC13; also synthesized (Fmoc) for tetramers and pulsing; also called c-Met-peptide; c-Met-protooncogene-fragment
B2: SVASTITGV (adipose differentiation-related protein 129-137) (peptide)
peptide: SVASTITGV
notes: Also synthesized (Fmoc) for tetramers and pulsing; also called adipophilin-peptide; adipophilin fragment
B3: ALLNIKVKL (keratin 18 365-373) (peptide)
peptide: ALLNIKVKL
notes: Found in tumors of both patients RCC01 and RCC13; also called keratin 18 peptide

The target in this assay is T1, recombinant HLA-A*0201-molecules (human).
T1 construct: Folded in vitro with the peptides, purified by gel filtration
The experiment in a line: in vitro folding of HLA-A*0201 with peptide, gel filtration.
Consider B1, for which the binding result was “binds”.

As for B2, the binding result is given as “binds”.

As to B3, the binding result was “binds”.

The values are drawn from patent US20050222390A1 (IMMATICS BIOTECHNOLOGIES, published 2005).
